We go through one protein from paper doi:10.1101/298208 (bioRxiv, 2018).

The data set deals with the molecule itself. Description: native gel or EMSA. In general terms: Mobility shift assays separate free from complexed probe on a gel.

B1: scavenger receptor class BI (SR-BI) (receptor)
chain: MGGSSRARWVALGLGALGLLFAALGVVMILMVPSLIKQQVLKNVRIDPSSLSFGMWKEIPVPFYLSVYFFEVVNPNEVLNGQKPVVRERGPYVYREFRQKVNITFNDNDTVSFVENRSLHFQPDKSHGSESDYIVLPNILVLGGSILMESKPVSLKLMMTLALVTMGQRAFMNRTVGEILWGYDDPFVHFLNTYLPDMLPIKGKFGLFVGMNNSNSGVFTVFTGVQNFSRIHLVDKWNGLSKIDYWHSEQCNMINGTSGQMWAPFMTPESSLEFFSPEACRSMKLTYNESRVFEGIPTYRFTAPDTLFANGSVYPPNEGFCPCRESGIQNVSTCRFGAPLFLSHPHFYNADPVLSEAVLGLNPNPKEHSLFLDIHPVTGIPMNCSVKMQLSLYIKSVKGIGQTGKIEPVVLPLLWFEQSGAMGGKPLSTFYTQLVLMPQVLHYAQYVLLGLGGLLLLVPIICQLRSQEKCFLFWSGSKKGSQDKEAIQAYSESLMSPAAKGTVLQEAKL
What is called stoichiometry N is the number of molecules, sites or subunits per partner or assembly. On to B1, for which the “stoichiometry N” value was found to be 2.
